T1: DKK1-APP (human, UniProt O94907 32-266)
T1 sequence: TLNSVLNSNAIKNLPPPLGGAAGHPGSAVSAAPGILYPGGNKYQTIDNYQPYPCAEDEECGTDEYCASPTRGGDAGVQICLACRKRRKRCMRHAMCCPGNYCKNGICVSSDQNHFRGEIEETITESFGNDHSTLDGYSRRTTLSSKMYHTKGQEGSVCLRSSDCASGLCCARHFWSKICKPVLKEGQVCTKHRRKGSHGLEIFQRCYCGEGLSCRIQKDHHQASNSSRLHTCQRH

T2: recombinant human DKK1 (human, UniProt O94907 32-266)
T2 construct: also called Dickkopf-1; rhDKK1
T2 sequence: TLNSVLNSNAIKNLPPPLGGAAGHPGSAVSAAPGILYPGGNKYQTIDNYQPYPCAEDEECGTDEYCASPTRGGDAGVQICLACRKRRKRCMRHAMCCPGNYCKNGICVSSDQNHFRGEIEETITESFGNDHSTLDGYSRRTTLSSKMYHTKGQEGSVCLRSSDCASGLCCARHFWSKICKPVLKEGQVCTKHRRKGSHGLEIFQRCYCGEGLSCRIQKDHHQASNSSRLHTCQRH

T3: mouse DKK1 (R&D Systems) (mouse, UniProt O54908 32-272)
T3 construct: Bought protein
T3 sequence (looked up): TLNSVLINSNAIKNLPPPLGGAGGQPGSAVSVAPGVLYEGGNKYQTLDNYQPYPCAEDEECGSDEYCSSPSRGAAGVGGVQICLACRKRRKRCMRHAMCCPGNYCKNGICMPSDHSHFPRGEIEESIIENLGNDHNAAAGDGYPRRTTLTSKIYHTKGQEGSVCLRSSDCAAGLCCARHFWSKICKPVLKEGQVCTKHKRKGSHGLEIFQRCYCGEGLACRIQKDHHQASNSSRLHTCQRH

T4: cynomolgus DKK1 (cynomolgus monkey (Macaca fascicularis), UniProt A0A7N9IE82 32-266)
T4 construct: also called cyno DKK1; monkey DKK1 (Novartis)
T4 sequence: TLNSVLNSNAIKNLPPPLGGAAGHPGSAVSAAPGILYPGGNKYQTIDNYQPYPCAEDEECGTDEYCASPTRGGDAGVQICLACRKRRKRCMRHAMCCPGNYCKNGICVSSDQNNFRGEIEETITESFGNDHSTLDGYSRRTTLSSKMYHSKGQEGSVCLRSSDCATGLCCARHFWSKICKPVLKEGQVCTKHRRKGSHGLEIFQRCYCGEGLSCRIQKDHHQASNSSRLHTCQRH

T5: biotinylated human DKK1 (human, UniProt O94907 32-266, biotinylated (sites not given))
T5 construct: also called biotinylated DKK1; human recombinant, biotinylated DKK1
T5 sequence: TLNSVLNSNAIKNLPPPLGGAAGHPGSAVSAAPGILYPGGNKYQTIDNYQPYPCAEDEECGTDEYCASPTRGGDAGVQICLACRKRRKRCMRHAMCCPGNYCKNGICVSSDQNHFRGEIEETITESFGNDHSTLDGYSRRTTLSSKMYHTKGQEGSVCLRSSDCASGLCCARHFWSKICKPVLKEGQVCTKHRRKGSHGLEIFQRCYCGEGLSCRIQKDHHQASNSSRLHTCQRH


Columns and labels:
[1] = molecular target: T1, DKK1-APP; experiment: cell-based or functional assay
[2] = molecular target: T1, DKK1-APP; experiment: cell-based or functional assay; remark: listed apart in the source
[3] = molecular target: T2, recombinant human DKK1; experiment: SPR (Biacore), DKK1 immobilised on CM5 chip, Fab as analyte
Method: (§1) Using these clones, kinetic SPR analysis is performed on a. […] The Fab preparations are applied in concentration series of 16-500 nM at a flow rate of 20 μl/min. Association phase is set to 60 s and dissociation phase to 120 s.

[4] = molecular target: T3, mouse DKK1 (R&D Systems); experiment: as above
Method: as §1

[5] = molecular target: T4, cynomolgus DKK1; experiment: as above
Method: as §1

[6] = molecular target: T2, recombinant human DKK1; experiment: as above; remark: listed apart in the source
Method: as §1

[7] = molecular target: T3, mouse DKK1 (R&D Systems); experiment: as above; remark: listed apart in the source
Method: as §1

[8] = molecular target: T4, cynomolgus DKK1; experiment: as above; remark: listed apart in the source
Method: as §1

[9] = molecular target: T2, recombinant human DKK1; experiment: as above; remark: listed apart in the source
Method: as §1

[10] = molecular target: T3, mouse DKK1 (R&D Systems); experiment: as above; remark: listed apart in the source
Method: as §1

[11] = molecular target: T4, cynomolgus DKK1; experiment: as above; remark: listed apart in the source
Method: as §1

[12] = molecular target: T1, DKK1-APP; experiment: cell-based or functional assay; remark: listed apart in the source
[13] = molecular target: T2, recombinant human DKK1; experiment: cell-based or functional assay
[14] = molecular target: T2, recombinant human DKK1; experiment: solution equilibrium titration (SET), ECL (BioVeris), Fab
Method: (§2) Electrochemiluminescence (ECL) based affinity determination in solution and data evaluation are basically performed as described by Haenel et al., 2005. […] Subsequently, the concentration of unbound Fab is quantified by ECL detection using the M-SERIES® 384 analyzer (BioVeris Europe).
(§3) Affinities are calculated according to Haenel et al., 2005 Anal Biochem 339.1:182-184.

[15] = molecular target: T3, mouse DKK1 (R&D Systems); experiment: as above
Method: as §2, §3

[16] = molecular target: T4, cynomolgus DKK1; experiment: as above
Method: as §2, §3

[17] = molecular target: T5, biotinylated human DKK1; experiment: ELISA, biotinylated DKK1 on Neutravidin plates, Fab 1 ug/ml, anti-FLAG-AP detection; single measurement
Method: Binding specificity of the matured Fabs in the presence of 50% human serum (HS) is determined. […] After coating of the antigen, wells are blocked with TBS/0.05% Tween (TBS-T) supplemented with 1% BSA for 1 h at room temperature. Purified Fabs described above are diluted either in TBS/4% BSA or TBS/50% HS at a final concentration of 1 μg/ml, added to the coated and blocked wells and the plates are incubated for 1 h at room temperature. For detection, an anti-FLAG alkaline phosphatase (AP)-conjugated antibody (1:5000 dilution in TBST) and the fluorogenic substrate AttoPhos (Roche) are used. After each incubation, the wells of the microtiter plates are washed with TBST five times, except after the final incubation step with the labeled secondary antibody when wells are washed three times.
The fluorescence is measured in a TECAN Spectrafluor plate reader.

| Luciferase reporter assay; EC50 [1] [nM] | EC50 [2] [nM] | Kd [3] [nM] | Kd [4] [nM] | Kd [5] [nM] | Kd [6] [nM] | Kd [7] [nM] | Kd [8] [nM] | Kd [9] [nM] | Kd [10] [nM] | Kd [11] [nM] | Luciferase reporter assay w/o Kremen; Activity in 15% Human serum (%) [12] [%] | TCF/LEF luc assay w/Kremen: EC50 [13] [nM] | Kd [14] [nM] | Kd [15] [nM] | Kd [16] [nM] | Binding activity w/50% Human serum vs 4% BSA (%) [17] [%] | Binder |
| --- | --- | --- | --- | --- | --- | --- | --- | --- | --- | --- | --- | --- | --- | --- | --- | --- | --- |
| 83 | 83 | 3.2 | 6 | 2.7 | 3.2 | 6 | 2.7 | 3.2 | 6 | 2.7 |  |  |  |  |  |  | MOR04454 (Fab, V domains shown, Fab with C-terminal FLAG and 6xHis tags) VH: QVQLVESGGGLVQPGGSLRLSCAASGFTFSNYGLHWVRQAPGKGLEWVSSISYYGSSTYYADSVKGRFTISRDNSKNTLYLQMNSLRAEDTAVYYCARDGSHMDKPPGYVFAFWGQGTLVTVSS VL: DIQMTQSPSSLSASVGDRVTITCRASQGIKNYLNWYQQKPGKAPKLLIGAASSLQSGVPSRFSGSGSGTDFTLTISSLQPEDFATYYCLQYYGMPPTFGQGTKVEIKR |
| 57 | 57 | 7.6 | 12.8 | 7.3 | 7.6 | 12.8 | 7.3 | 7.6 | 12.8 | 7.3 |  |  |  |  |  |  | MOR04461 (Fab, V domains shown, Fab with C-terminal FLAG and 6xHis tags) VH: QVQLVESGGGLVQPGGSLRLSCAASGFTFSSYWMSWVRQAPGKGLEWVSGISYSGSNTHYADSVKGRFTISRDNSKNTLYLQMNSLRAEDTAVYYCARMGIDLDYWGQGTLVTVSS VL: DIALTQPASVSGSPGQSITISCTGTSSDVGGFNYVSWYQQHPGKAPKLMIHDGSNRPSGVSNRFSGSKSGNTASLTISGLQAEDEADYYCSTWDMTVDFVFGGGTKLTVLG |
| 42 | 42 | 2.6 | 2.4 | 1.9 | 2.6 | 2.4 | 1.9 | 2.6 | 2.4 | 1.9 |  |  |  |  |  |  | MOR04516 (Fab, V domains shown, Fab with C-terminal FLAG and 6xHis tags; also called MOR4516) VH: QVQLVQSGAEVKKPGESLKISCKGSGYSFTNYYIGWVRQMPGKGLEWMGIIYPTDSYTNYSPSFQGQVTISADKSISTAYLQWSSLKASDTAMYYCARGIPFRMRGFDYWGQGTLVTVSS VL: DIVLTQPPSVSGAPGQRVTISCSGSSSNIGSSFVNWYQQLPGTAPKLLIGNNSNRPSGVPDRFSGSKSGTSASLAITGLQSEDEADYYCASFDMGSPNVVFGGGTKLTVLG |

The remaining lines, values behind:

| Binder | Luciferase reporter assay; EC50 [1] [nM] | EC50 [2] [nM] | Kd [3] [nM] | Kd [4] [nM] | Kd [5] [nM] | Kd [6] [nM] | Kd [7] [nM] | Kd [8] [nM] | Kd [9] [nM] | Kd [10] [nM] | Kd [11] [nM] | Luciferase reporter assay w/o Kremen; Activity in 15% Human serum (%) [12] [%] | TCF/LEF luc assay w/Kremen: EC50 [13] [nM] | Kd [14] [nM] | Kd [15] [nM] | Kd [16] [nM] | Binding activity w/50% Human serum vs 4% BSA (%) [17] [%] |
| --- | --- | --- | --- | --- | --- | --- | --- | --- | --- | --- | --- | --- | --- | --- | --- | --- | --- |
| MOR04456 (Fab, V domains shown, Fab with C-terminal FLAG and 6xHis tags) VH: QVQLVESGGGLVQPGGSLRLSCAASGFTFNNYGMTWVRQAPGKGLEWVSGISGSGSYTYYADSVKGRFTISRDNSKNTLYLQMNSLRAEDTAVYYCARTIYMDYWGQGTLVTVSS VL: DIVLTQSPATLSLSPGERATLSCRASQNLFSPYLAWYQQKPGQAPRLLIYGASNRATGVPARFSGSGSGTDFTLTISSLEPEDFATYYCQQYGDEPITFGQGTKVEIKR | 95 | 95 | 7.9 | 11.6 | 8.1 | 7.9 | 11.6 | 8.1 | 7.9 | 11.6 | 8.1 |  |  |  |  |  |  |
| MOR04907 (Fab, V domains shown) VH: QVQLVESGGGLVQPGGSLRLSCAASGFTFNNYGMTWVRQAPGKGLEWVSGISGSGSYTYYADSVKGRFTISRDNSKNTLYLQMNSLRAEDTAVYYCARTIYMDYWGQGTLVTVSS VL: DIVLTQSPATLSLSPGERATLSCRASQNLFSPYLAWYQQKPGQAPRLLIYGASNRATGVPARFSGSGSGTDFTLTISSLEPEDFAVYYCQQYLSLPTTFGQGTKVEIKR |  |  |  |  |  |  |  |  |  |  |  | 54 | 0.9 | 0.114 | 0.167 | 0.17 | > 83 |
| MOR04914 (Fab, V domains shown) VH: QVQLVESGGGLVQPGGSLRLSCAASGFTFSSYWMSWVRQAPGKGLEWVSVISSDSSSTYYADSVKGRFTISRDNSKNTLYLQMNSLRAEDTAVYYCARHGIDFDHWGQGTLVTVSS VL: DIALTQPASVSGSPGQSITISCTGTSSDLGGYNYVSWYQQHPGKAPKLMIYDVNNRPSGVSNRFSGSKSGNTASLTISGLQAEDEADYYCQSYTYTPISPVFGGGTKLTVLG |  |  |  |  |  |  |  |  |  |  |  | 80 | 1.1 | 0.094 | 0.2 | 0.14 | 83 |
| MOR04954 (Fab, V domains shown) VH: QVQLVESGGGLVQPGGSLRLSCAASGFTFSSYWMSWVRQAPGKGLEWVSVIEHKDKGGTTYYAASVKGRFTISRDNSKNTLYLQMNSLRAEDTAVYYCARHGIDFDHWGQGTLVTVSS VL: DIALTQPASVSGSPGQSITISCTGTSSDLGGYNYVSWYQQHPGKAPKLMIYDVNNRPSGVSNRFSGSKSGNTASLTISGLQAEDEADYYCQSYASGNTKVVFGGGTKLTVLG |  |  |  |  |  |  |  |  |  |  |  | 55 | 1.3 | 0.11 | 0.036 | 0.112 | > 83 |
| MOR04921 (Fab, V domains shown) VH: QVQLVESGGGLVQPGGSLRLSCAASGFTFSSYWMSWVRQAPGKGLEWVSGISYSGSNTHYADSVKGRFTISRDNSKNTLYLQMNSLRAEDTAVYYCARMGIDLDYWGQGTLVTVSS VL: DIALTQPASVSGSPGQSITISCTGTSSDVGGFNYVSWYQQHPGKAPKLMIHDGSNRPSGVSNRFSGSKSGNTASLTISGLQAEDEADYYCQTWATSPLSSVFGGGTKLTVLG |  |  |  |  |  |  |  |  |  |  |  | 26 | 0.7 |  |  |  | 93 |

Reference: patent US20120023600A1 (Novartis, published 2012)
